{"source": "paper PMC9674701", "about": "“Cancer cell survival depends on collagen uptake into tumor-associated stroma” (Nature Communications, 2022)", "binders": {"B1": {"name": "TEM8 on TEM8 overexpressing CHO cells (CHO-TEM8), wild type (receptor)", "chain": "not shown"}}, "molecular_target": "FITC-labeled bovine type I Collagen (Chondrex 4001) (bovine, UniProt P02453 162-1217; P02465 80-1117, FITC label (FITC-Col labeled at a 1:1 molar ratio); labelled residues not stated | FITC label (FITC-Col labeled at a 1:1 molar ratio); labelled residues not stated)", "sequence (P02453 162-1217, chain 1 of 2)": "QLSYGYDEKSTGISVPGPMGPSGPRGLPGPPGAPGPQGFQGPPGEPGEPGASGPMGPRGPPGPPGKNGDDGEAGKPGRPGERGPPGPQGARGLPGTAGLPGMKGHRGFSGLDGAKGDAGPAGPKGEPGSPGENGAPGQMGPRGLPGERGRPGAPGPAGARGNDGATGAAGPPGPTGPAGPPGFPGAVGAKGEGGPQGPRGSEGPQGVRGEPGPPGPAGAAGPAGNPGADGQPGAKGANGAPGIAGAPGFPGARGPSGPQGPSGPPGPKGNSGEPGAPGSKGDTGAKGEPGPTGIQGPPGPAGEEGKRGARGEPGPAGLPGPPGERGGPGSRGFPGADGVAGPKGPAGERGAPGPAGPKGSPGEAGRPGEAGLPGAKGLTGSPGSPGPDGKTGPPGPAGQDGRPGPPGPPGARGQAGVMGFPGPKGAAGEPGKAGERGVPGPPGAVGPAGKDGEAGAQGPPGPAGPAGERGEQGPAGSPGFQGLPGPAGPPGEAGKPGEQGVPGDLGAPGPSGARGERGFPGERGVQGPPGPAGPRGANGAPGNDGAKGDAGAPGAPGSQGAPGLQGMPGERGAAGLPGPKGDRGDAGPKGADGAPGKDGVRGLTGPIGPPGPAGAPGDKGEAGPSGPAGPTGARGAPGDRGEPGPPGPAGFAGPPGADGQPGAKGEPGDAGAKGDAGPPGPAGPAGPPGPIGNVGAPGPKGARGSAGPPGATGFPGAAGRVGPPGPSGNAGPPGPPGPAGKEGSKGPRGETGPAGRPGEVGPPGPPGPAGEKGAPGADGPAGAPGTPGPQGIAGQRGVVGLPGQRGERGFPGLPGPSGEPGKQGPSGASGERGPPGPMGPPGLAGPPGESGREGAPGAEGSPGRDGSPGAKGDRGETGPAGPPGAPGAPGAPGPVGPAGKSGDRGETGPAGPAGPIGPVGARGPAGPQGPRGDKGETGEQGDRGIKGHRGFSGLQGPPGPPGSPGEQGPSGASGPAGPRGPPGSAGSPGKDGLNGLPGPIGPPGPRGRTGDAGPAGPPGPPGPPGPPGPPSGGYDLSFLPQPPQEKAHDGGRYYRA", "sequence (P02465 80-1117, chain 2 of 2)": "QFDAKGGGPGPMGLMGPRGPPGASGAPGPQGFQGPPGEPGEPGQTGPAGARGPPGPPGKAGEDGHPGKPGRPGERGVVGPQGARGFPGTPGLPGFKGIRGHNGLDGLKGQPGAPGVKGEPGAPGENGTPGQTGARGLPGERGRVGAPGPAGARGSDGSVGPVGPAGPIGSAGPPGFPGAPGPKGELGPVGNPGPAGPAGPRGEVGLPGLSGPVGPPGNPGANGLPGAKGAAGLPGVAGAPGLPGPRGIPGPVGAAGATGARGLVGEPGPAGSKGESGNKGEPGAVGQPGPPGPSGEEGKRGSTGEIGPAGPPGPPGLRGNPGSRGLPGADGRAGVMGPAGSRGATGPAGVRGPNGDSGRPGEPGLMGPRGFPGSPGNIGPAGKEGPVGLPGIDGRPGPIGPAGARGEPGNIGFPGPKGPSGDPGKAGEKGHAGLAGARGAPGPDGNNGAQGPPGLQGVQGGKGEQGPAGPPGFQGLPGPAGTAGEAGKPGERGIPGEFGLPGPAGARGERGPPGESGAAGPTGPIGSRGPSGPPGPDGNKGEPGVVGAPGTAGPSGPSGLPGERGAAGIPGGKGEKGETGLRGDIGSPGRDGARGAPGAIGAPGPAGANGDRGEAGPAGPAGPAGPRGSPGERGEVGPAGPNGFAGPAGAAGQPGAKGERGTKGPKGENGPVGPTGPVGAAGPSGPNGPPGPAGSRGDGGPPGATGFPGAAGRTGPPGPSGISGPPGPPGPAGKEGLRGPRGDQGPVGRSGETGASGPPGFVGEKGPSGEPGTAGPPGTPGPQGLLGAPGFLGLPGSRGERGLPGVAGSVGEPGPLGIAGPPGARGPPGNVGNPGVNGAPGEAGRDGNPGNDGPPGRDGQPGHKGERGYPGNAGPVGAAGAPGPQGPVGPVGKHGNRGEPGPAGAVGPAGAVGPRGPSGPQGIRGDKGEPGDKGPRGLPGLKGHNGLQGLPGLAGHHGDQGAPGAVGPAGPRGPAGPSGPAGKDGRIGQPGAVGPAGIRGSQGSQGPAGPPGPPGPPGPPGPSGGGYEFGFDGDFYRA", "test": "cell-based or functional assay", "data": [{"binder": "B1", "values": [{"measurement": "FITC-col internalization assay, flow cytometry of FITC-col trapped inside cells (Fig. 4e)", "value": 5, "unit": "fold"}, {"measurement": "soluble FITC released into the culture supernatant from a FITC-Col gel, 48 h (Fig. 4d)", "value": "~3", "unit": "fold"}]}]}
